# T1: CD19 antigen on Daudi lymphoma cells (human, UniProt P15391 20-556)
# T1 construct: whole, on cells; also called Daudi cells
# T1 sequence (looked up): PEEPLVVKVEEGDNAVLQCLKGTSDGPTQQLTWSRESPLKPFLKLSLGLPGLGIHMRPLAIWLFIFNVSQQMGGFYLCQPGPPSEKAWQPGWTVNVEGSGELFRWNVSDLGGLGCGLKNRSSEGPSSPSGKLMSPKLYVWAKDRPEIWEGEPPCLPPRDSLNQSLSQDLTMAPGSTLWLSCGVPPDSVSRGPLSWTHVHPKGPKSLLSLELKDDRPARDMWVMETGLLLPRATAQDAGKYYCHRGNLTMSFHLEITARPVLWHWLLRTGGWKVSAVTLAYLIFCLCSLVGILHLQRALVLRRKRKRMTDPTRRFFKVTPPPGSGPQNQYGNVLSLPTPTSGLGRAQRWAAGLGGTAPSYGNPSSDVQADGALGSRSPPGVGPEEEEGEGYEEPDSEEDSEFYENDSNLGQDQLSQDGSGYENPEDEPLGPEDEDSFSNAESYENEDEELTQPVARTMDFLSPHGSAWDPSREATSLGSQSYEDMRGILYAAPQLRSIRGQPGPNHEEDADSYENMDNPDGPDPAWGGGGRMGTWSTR
# Columns and labels:
# [1] = target: T1, CD19 antigen on Daudi lymphoma cells; assay: FACS competition on Daudi cells; unlabeled antibody 100 ng/ml (1x) vs competitor biotin-B4 VH0/VK0 100 ng/ml
# Description: (§1) Briefly, a titration series was prepared of biotin-labeled B4 VH0/VK0 antibody pre-mixed at a final concentration of 100 ng/ml with one of the unlabeled, experimental B4 VHvx/VKvy antibodies at 800 ng/ml, 400 ng/ml, 200 ng/ml, 100 ng/ml, and 50 ng/ml in a PBS/2% serum buffer. As a control, the biotin-labeled antibody was pre-mixed with unlabeled B4 VH0/VK0 antibody at the same concentrations as above (inhibition control) or with buffer only (positive binding control). The combined antibodies were added to Daudi cells for 30 minutes at 4° C. A 1:200 dilution of FITC-labeled streptavidin was added to the cells and the samples were incubated for a further 30 minutes at 4° C. Bound amount of labeled B4 VH0/VK0 antibody was quantitated by FACS analysis, and the results were expressed as “percent inhibition,” relative to the positive binding control. The tested antibodies were B4 VH0/VK0 (C), B4 VHv1/VKv1 (1), B4 VHv2/VKv1 (2), B4 VHv1/VKv2 (3), B4 VHv2/VKv2 (4), B4 VHv3/VKv3 (5), B4 VHv4/VKv3 (6), B4 VHv3/VKv4 (7), B4 VHv4/VKv4 (8), B4 VHv5/VKv4 (9), and B4 VHv6/VKv4 (10).
# [2] = target: T1, CD19 antigen on Daudi lymphoma cells; assay: FACS competition on Daudi cells; unlabeled antibody 200 ng/ml (2x) vs competitor biotin-B4 VH0/VK0 100 ng/ml
# Description: as §1
# [3] = target: T1, CD19 antigen on Daudi lymphoma cells; assay: FACS competition on Daudi cells; unlabeled antibody 400 ng/ml (4x) vs competitor biotin-B4 VH0/VK0 100 ng/ml
# Description: as §1
# [4] = target: T1, CD19 antigen on Daudi lymphoma cells; assay: FACS competition on Daudi cells; unlabeled antibody 800 ng/ml (8x) vs competitor biotin-B4 VH0/VK0 100 ng/ml
# Description: as §1
# [5] = target: T1, CD19 antigen on Daudi lymphoma cells; assay: FACS competition on Daudi cells; unlabeled antibody 100 ng/ml (1x) vs competitor biotin-B4 VH0/VK0 100 ng/ml; remark: listed apart in the source
# Description: as §1
# [6] = target: T1, CD19 antigen on Daudi lymphoma cells; assay: FACS competition on Daudi cells; unlabeled antibody 200 ng/ml (2x) vs competitor biotin-B4 VH0/VK0 100 ng/ml; remark: listed apart in the source
# Description: as §1
# [7] = target: T1, CD19 antigen on Daudi lymphoma cells; assay: FACS competition on Daudi cells; unlabeled antibody 400 ng/ml (4x) vs competitor biotin-B4 VH0/VK0 100 ng/ml; remark: listed apart in the source
# Description: as §1
# [8] = target: T1, CD19 antigen on Daudi lymphoma cells; assay: FACS competition on Daudi cells; unlabeled antibody 800 ng/ml (8x) vs competitor biotin-B4 VH0/VK0 100 ng/ml; remark: listed apart in the source
# Description: as §1
# [9] = target: T1, CD19 antigen on Daudi lymphoma cells; assay: FACS competition on Daudi cells; unlabeled antibody 50 ng/ml (0.5x) vs competitor biotin-B4 VH0/VK0 100 ng/ml
# Description: as §1
# [10] = target: T1, CD19 antigen on Daudi lymphoma cells; assay: as above; remark: listed apart in the source
# Description: as §1
binder,measurement,setting,value
"B4 VH0/VK0 antibody (antibody, V domains shown, Expressed from pdHL12 as intact heavy and light chains; also called parental B4 antibody) VH: QVQLQQPGAEVVKPGASVRLSCKTSGYTFTSNWMHWVKQRPGQGLEWIGEIDPSDSYTNYNQKFKGKAKLTVDKSSSTAYMEVSSLTSEDSAVYYCARGSNPYYYAMDYWGQGTSVTVSS VL: QIVLTQSPAIMSASPGEKVTMTCSASSGVNYMHWYQQKPGTSPKRWIYDTSKLASGVPARFSGSGSGTSYSLTISSMEAEDAATYYCHQRGSYTFGGGTKLEIK",% inhibition of labeled B4 binding,[1],28%
same,% inhibition of labeled B4 binding,[2],44%
same,% inhibition of labeled B4 binding,[3],56%
same,% inhibition of labeled B4 binding,[4],68%
same,% inhibition of labeled B4 binding,[5],67%
same,% inhibition of labeled B4 binding,[6],83%
same,% inhibition of labeled B4 binding,[7],90%
same,% inhibition of labeled B4 binding,[8],93%
same,% inhibition of labeled B4 binding,[9],16%
same,% inhibition of labeled B4 binding,[10],50%

# Reference: patent US20190241671A1 (Merck KGaA, published 2019)
